Assay results from patent publication US10487337B2, “Methods for monocot plant improvement” (Agresearch Limited, priority 2014, dated 2019).

How the values were obtained:
DELLA (RGA1) = molecular target: T1, DELLA (RGA1) (Arabidopsis thaliana, UniProt Q9SLH3); assay: Yeast two-hybrid (Y2H) analysis between PPD and DELLA (RGA1); assay type: binding; conditions: PPD1-DBD as bait, 15 mM 3AT
T1 construct: expressed in transfected cells; host or cells: yeast strain MaV203
T1 sequence (Q9SLH3 with tags, fused parts or gaps): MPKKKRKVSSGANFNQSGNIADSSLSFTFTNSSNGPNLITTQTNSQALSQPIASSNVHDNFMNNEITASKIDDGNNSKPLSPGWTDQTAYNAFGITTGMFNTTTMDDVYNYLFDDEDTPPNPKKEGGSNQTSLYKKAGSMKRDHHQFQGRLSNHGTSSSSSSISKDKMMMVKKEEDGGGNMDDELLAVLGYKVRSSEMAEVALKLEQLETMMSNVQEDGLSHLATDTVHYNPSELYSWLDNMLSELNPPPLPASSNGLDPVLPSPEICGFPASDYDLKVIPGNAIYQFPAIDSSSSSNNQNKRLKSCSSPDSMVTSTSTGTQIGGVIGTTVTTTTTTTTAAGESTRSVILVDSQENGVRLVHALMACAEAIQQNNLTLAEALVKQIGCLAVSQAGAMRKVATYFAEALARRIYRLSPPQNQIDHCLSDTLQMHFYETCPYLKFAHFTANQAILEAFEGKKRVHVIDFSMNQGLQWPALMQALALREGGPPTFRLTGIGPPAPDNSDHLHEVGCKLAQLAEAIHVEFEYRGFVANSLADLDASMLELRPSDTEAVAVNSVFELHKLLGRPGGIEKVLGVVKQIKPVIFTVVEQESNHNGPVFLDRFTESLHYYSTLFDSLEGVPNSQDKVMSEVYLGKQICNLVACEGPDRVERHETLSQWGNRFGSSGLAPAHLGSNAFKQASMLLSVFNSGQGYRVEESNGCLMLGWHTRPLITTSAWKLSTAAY
From the text: The ProQuest two-hybrid system (Invitrogen) was used to analyse interactions between PPD1, and RGA1. Full length coding sequences of PPD1, together with truncation or deletion derivatives of PPD1 (PPD1Δppd, PPD1Δtify, and PPD1Δjas*) (FIG. 5), were Gateway sub-cloned into pDEST32 (N-terminal GAL4DBD) or pDEST22 (N-terminal GAL4AD). When translated these generated the following peptide sequences: 55, 65, 66, 67, 68, 7169, which are PPD1-DBD, RGA1, RGA1-AD, PPD1-ppd-DBD, PPD1-tify-DBD, PP1-jas*-DBD respectively.
Combinations of bait and prey constructs were used to co-transform yeast strain MaV203 (Invitrogen), with selection on synthetic dropout (SD) SD/-Leu/-Trp agar plates. Transformed strains were tested for interactions using 10 μl droplets of 1 in 10 and 1 in 100 dilutions on SD/-Leu/-Trp/-His plates with different concentrations of 3-aminotriazol (3-AT) (Sigma). The PPD1-RGA1 interaction was tested with PPD1-DBD used as bait. Transformed yeast was spotted as a ten-fold dilution on control medium (−2) or selective medium (−3) with 15 mM 3AT. Controls were empty vectors, DBD, GAL4 DNA binding domain, AD, GAL4 activation domain (FIG. 5).

BZR1 = molecular target: T2, BZR1 (Arabidopsis thaliana, UniProt Q8S307); assay: BiFC interaction with BZR1 in Nicotiana benthamiana leaves; assay type: cell-based
T2 construct: expressed in transfected cells; host or cells: Nicotiana benthamiana leaves (Agrobacterium infiltration)
T2 sequence (Q8S307 1-336): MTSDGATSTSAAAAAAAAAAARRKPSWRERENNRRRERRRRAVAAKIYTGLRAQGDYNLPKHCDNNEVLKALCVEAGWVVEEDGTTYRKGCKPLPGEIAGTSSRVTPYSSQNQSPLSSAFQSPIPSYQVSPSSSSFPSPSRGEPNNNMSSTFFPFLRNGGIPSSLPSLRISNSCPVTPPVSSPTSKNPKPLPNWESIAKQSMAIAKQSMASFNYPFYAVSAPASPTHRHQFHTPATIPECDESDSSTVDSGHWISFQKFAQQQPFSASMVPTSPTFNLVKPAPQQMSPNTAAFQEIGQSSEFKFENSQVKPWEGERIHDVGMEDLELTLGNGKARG
From the text: The binary BiFC-Gateway YFP vectors pDEST-VYNE(R)^GW (Venus aa 1-173) and pDEST-VYCE(R)^GW (Venus aa 156-239) with N-terminal fusions, were used to construct the following vectors; pDESTnYFP-BZR1, pDESTnYFP-NINJA, pDESTnYFP-PPD1, pDESTcYFP-BZR1, pDESTcYFP-PPD1, pDESTcYFP-PPD1Δppd, pDESTcYFP-PPD1Δtify and pDESTcYFP-PPD1Δjas*. For transient in planta expression of proteins interacting with PPD1 or BZR, NINJA and TPL were Gateway® sub-cloned into pRSh1, to construct pRSh1-NINJA and pRSh1-TPL. Plasmids for co-immunoprecipitation: A synthesised DNA construct encoding PPD1 with a 3×c-myc C-terminal fusion was sub-cloned into pRSh1 to produce pRSh1-PPD1-3×c-myc, while the NINJA cDNA sequence was sub-cloned into pB7FWG2,0 (Karimi et al 2002, Trends Plant Sci. 7, 193-195) to construct pB7FWG2-NINJA-GFP. When expressed these constructs produced proteins listed in sequences 60, 62, 70 71 72 73 74 75 76 77 78 79: including TOPLESS (TPL), NINJA, Bimolecular Fluorescence (BiFC) nYFP, BiFC cYFP, BiFC nYFP-NINJA, BiFC nYFP-BZR1, BiFC cYFP-PPD1, BiFC cYFP-NINJA, BiFC cYFP-BZR1, BiFC cYFP-PPD1-ppd, BiFC cYFP-PPD1-tify, BiFC cYFP-PPD1-jas*.
Transient BiFC experiments were performed using combinations of pDESTnYFP and pDESTcYFP plasmids, with or without plasmids for the expression of NINJA (pRSh1-NINJA) or TPL (pRSh1-TPL) and Agrobacterium-infiltration of Nicotiana benthamiana leaves. For infiltration Agrobacterium tumefaciens GV3101 strains containing the binary vectors were re-suspended from plates and prepared for transformation as described for the LUC assay. All YFP and expression strains were mixed in ratios of 1:1 (vol/vol) with the addition of strain P19 at 1/10th volume. Five leaf discs were sampled from each infiltrated leaf after 40 h. Two hours prior to sampling for microscopic fluorescence observations leaves were infiltrated with a 1 μg/ml DAPI solution to stain nuclei. YFP fluorescence and DAPI staining was detected using an Olympus Fluoview FV10i confocal laser scanning microscope. Each experiment was repeated twice.

B1: PPD1: PEAPOD 1 protein of Arabidopsis thaliana, SEQ ID NO: 1 (protein, listed as Arabidopsis thaliana)
chain: MDVGVSPAKSILAKPLKLLTEEDISQLTREDCRKFLKDKGMRRPSWNKSQAIQQVLSLKALYEPGDDSGAGIFRKILVSQPVNPPRVTTTLIEPSNELEACGRVSYPEDNGACHRMDSPRSAEFSGGSGHFVSEKDGHKTTISPRSPAETSELVGQMTIFYSGKVNVYDGIPPEKARSIMHFAANPIDLPENGIFASSRMISKLISKEKMMELPQKGLEKANSSRDSGMEGQANRKVSLQRYREKRKDRKFSKAKKCPGVASSSLEMFLNCQPRMKAAYSQNLGCTGSPLHSQSPESQTKSPNLSVDLNSEGI
DELLA (RGA1)
  interaction with DELLA (RGA1): can directly bind to DELLA
BZR1; fully expanded leaves, co-expression of NINJA
  interaction with BZR1: restored
BZR1; pavement cells of immature Nicotiana benthamiana leaves
  interaction with BZR1: appears to interact with BZR1 in the nucleus
